The results in this text go back to PMC11054337 (2024).

The target of test [1] is T1, phosphofructokinase PTS1 peptide (Leishmania donovani). Kind of test: fluorescence polarization competition.
The target in test [2] is T2, xanthine phosphoribosyltransferase PTS1 peptide (Leishmania donovani). Kind of test: fluorescence polarization competition.
Test [3] deals with T3, galactokinase PTS1 peptide (Leishmania donovani). Kind of test: fluorescence polarization competition.
The target in test [4] is T1, phosphofructokinase PTS1 peptide. Kind of test: fluorescence polarization.
Test [5] addresses T2, xanthine phosphoribosyltransferase PTS1 …. Kind of test: fluorescence polarization.
Test [6] has as its target T3, galactokinase PTS1 peptide. Kind of test: fluorescence polarization.

B1: PEX5 303-625 (protein)
chain: RLQKVTNSTDYPFEPNNPYMFHDFPFDEGMEMLQLGNLAEAALAFEAVCHKDSSNEKAWQILGTTQAENEKDGLAIIALNNARKLNPRNLEVHAALSVSHTNERNADAAMDSLKAWLVNHPEYEQLASVSIPPNAELDVQETFFFADPSRMREARTLYEAAIEMNPSDSQLFTNLGVLHNVAHEFDEAAECFRKAVALHPDDPKMWNKLGATLANGGHPDQALEAYNRALDINPGYVRAMYNMAVAYSNMSQYNMAARQIVKAIASQQGGTKPSGEGSIMATRNMWDLLRMTLNLMDRDDLVQLTYNEQLEPFVKEFGLEGHV
In the case of B1, the IC50 in test [1] is greater than 60000 nM; in test [2], 3610 nM; in test [3], 10600 nM. Also, the Kd in test [4] was found to be 102 nM; in test [5], 78 nM; in test [6], 382 nM.
